Laboratory results from the supplement of paper PMC10567573.

B1: NEK8 (parent)
chain: VVGTPCYISPELCEGKPYNQKSDI

Variants of: B1
Experiment: protein stability index of a GFP-peptide fusion (GPS, HEK-293T) (PSI 1-6); higher = more stable
Conditions: c terminus: a fixed tail appended
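Note: lentivirally expressed fusions sorted by FACS into six bins by GFP to DsRed ratio, PSI derived from sequencing read proportions per bin multiplied by bin number.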

Variant | protein stability index
VVGTPCYISPELAEGKPYNQKSDI [C13A] | 2.71
VVGTPCYISPELTEGKPYNQKSDI [C13T] | 2.94
VVGTPCYISPELFEGKPYNQKSDI [C13F] | 2.19
VVGTPCYISPELSEGKPYNQKSDI [C13S] | 2.9
VVGTPCYISPELQEGKPYNQKSDI [C13Q] | 2.79
VVGTPCYISPELNEGKPYNQKSDI [C13N] | 3.23
VVGTPCYISPELVEGKPYNQKSDI [C13V] | 2.95
VVGTPCYISPELEEGKPYNQKSDI [C13E] | 2.98
VVGTPCYISPELYEGKPYNQKSDI [C13Y] | 2.79
VVGTPCYISPELMEGKPYNQKSDI [C13M] | 2.79
VVGTPCYISPELWEGKPYNQKSDI [C13W] | 1.92
VVGTPCYISPELDEGKPYNQKSDI [C13D] | 3.34
VVGTPCYISPELHEGKPYNQKSDI [C13H] | 2.92
VVGTPCYISPELREGKPYNQKSDI [C13R] | 3.27
VVGTPCYISPELGEGKPYNQKSDI [C13G] | 3.08
VVGTPCYISPELIEGKPYNQKSDI [C13I] | 2.48
VVGTPCYISPELKEGKPYNQKSDI [C13K] | 3.38
VVGTPCYISPELPEGKPYNQKSDI [C13P] | 2.3
VVGTPCMISPELCEGKPYNQKSDI [Y7M] | 3.97
VVGTPCTISPELCEGKPYNQKSDI [Y7T] | 4.36
VVGTPCPISPELCEGKPYNQKSDI [Y7P] | 4.16
VVGTPCIISPELCEGKPYNQKSDI [Y7I] | 4.08
VVGTPCGISPELCEGKPYNQKSDI [Y7G] | 3.98
VVGTPCCISPELCEGKPYNQKSDI [Y7C] | 4.16

Variant | protein stability index
VVGTPCKISPELCEGKPYNQKSDI [Y7K] | 3.92
VVGTPCLISPELCEGKPYNQKSDI [Y7L] | 3.83
VVGTPCSISPELCEGKPYNQKSDI [Y7S] | 3.69
VVGTPCRISPELCEGKPYNQKSDI [Y7R] | 3.96
VVGTPCFISPELCEGKPYNQKSDI [Y7F] | 3.05
VVGTPCWISPELCEGKPYNQKSDI [Y7W] | 2.82
VVGTPCVISPELCEGKPYNQKSDI [Y7V] | 4.04
VVGTPCHISPELCEGKPYNQKSDI [Y7H] | 3.87
VVGTPCDISPELCEGKPYNQKSDI [Y7D] | 4.69
VVGTPCEISPELCEGKPYNQKSDI [Y7E] | 4.5
VVGTPCQISPELCEGKPYNQKSDI [Y7Q] | 4.35
VVGTPCAISPELCEGKPYNQKSDI [Y7A] | 3.94
VVGTPCNISPELCEGKPYNQKSDI [Y7N] | 4.52
VVGTPCYGSPELCEGKPYNQKSDI [I8G] | 4.42
VVGTPCYWSPELCEGKPYNQKSDI [I8W] | 2.27
VVGTPCYFSPELCEGKPYNQKSDI [I8F] | 2.9
VVGTPCYKSPELCEGKPYNQKSDI [I8K] | 4.14
VVGTPCYYSPELCEGKPYNQKSDI [I8Y] | 2.31
VVGTPCYTSPELCEGKPYNQKSDI [I8T] | 3.77
VVGTPCYCSPELCEGKPYNQKSDI [I8C] | 3.05
VVGTPCYSSPELCEGKPYNQKSDI [I8S] | 3.98
VVGTPCYLSPELCEGKPYNQKSDI [I8L] | 3.48
VVGTPCYNSPELCEGKPYNQKSDI [I8N] | 4.4
VVGTPCYASPELCEGKPYNQKSDI [I8A] | 4.4

Variant | protein stability index
VVGTPCYHSPELCEGKPYNQKSDI [I8H] | 3.2
VVGTPCYVSPELCEGKPYNQKSDI [I8V] | 4.03
VVGTPCYQSPELCEGKPYNQKSDI [I8Q] | 4.42
VVGTPCYDSPELCEGKPYNQKSDI [I8D] | 4.18
VVGTPCYPSPELCEGKPYNQKSDI [I8P] | 4.29
VVGTPCYESPELCEGKPYNQKSDI [I8E] | 4.5
VVGTPCYRSPELCEGKPYNQKSDI [I8R] | 3.7
VVGTPCYMSPELCEGKPYNQKSDI [I8M] | 2.89
VVGTKCYISPELCEGKPYNQKSDI [P5K] | 3.18
VVGTRCYISPELCEGKPYNQKSDI [P5R] | 2.76
VVGTFCYISPELCEGKPYNQKSDI [P5F] | 1.16
VVGTTCYISPELCEGKPYNQKSDI [P5T] | 3.32
VVGTDCYISPELCEGKPYNQKSDI [P5D] | 2.98
VVGTWCYISPELCEGKPYNQKSDI [P5W] | 1.66
VVGTACYISPELCEGKPYNQKSDI [P5A] | 3.05
VVGTYCYISPELCEGKPYNQKSDI [P5Y] | 2.06
VVGTNCYISPELCEGKPYNQKSDI [P5N] | 3.21
VVGTQCYISPELCEGKPYNQKSDI [P5Q] | 3.62
VVGTMCYISPELCEGKPYNQKSDI [P5M] | 2.75
VVGTICYISPELCEGKPYNQKSDI [P5I] | 1.64
VVGTSCYISPELCEGKPYNQKSDI [P5S] | 3.36
VVGTVCYISPELCEGKPYNQKSDI [P5V] | 1.89
VVGTLCYISPELCEGKPYNQKSDI [P5L] | 2.28
VVGTHCYISPELCEGKPYNQKSDI [P5H] | 3.14

Variant | protein stability index
VVGTCCYISPELCEGKPYNQKSDI [P5C] | 2.56
VVGTGCYISPELCEGKPYNQKSDI [P5G] | 3.27
VVGTECYISPELCEGKPYNQKSDI [P5E] | 3.53
VVGTPQYISPELCEGKPYNQKSDI [C6Q] | 4.11
VVGTPWYISPELCEGKPYNQKSDI [C6W] | 2.5
VVGTPNYISPELCEGKPYNQKSDI [C6N] | 2.38
VVGTPEYISPELCEGKPYNQKSDI [C6E] | 4.34
VVGTPSYISPELCEGKPYNQKSDI [C6S] | 3.08
VVGTPDYISPELCEGKPYNQKSDI [C6D] | 4.4
VVGTPLYISPELCEGKPYNQKSDI [C6L] | 3.25
VVGTPFYISPELCEGKPYNQKSDI [C6F] | 2.14
VVGTPYYISPELCEGKPYNQKSDI [C6Y] | 2.02
VVGTPGYISPELCEGKPYNQKSDI [C6G] | 3.39
VVGTPMYISPELCEGKPYNQKSDI [C6M] | 3.56
VVGTPHYISPELCEGKPYNQKSDI [C6H] | 2.47
VVGTPPYISPELCEGKPYNQKSDI [C6P] | 3.38
VVGTPTYISPELCEGKPYNQKSDI [C6T] | 3.26
VVGTPKYISPELCEGKPYNQKSDI [C6K] | 3.48
VVGTPIYISPELCEGKPYNQKSDI [C6I] | 3.07
VVGTPAYISPELCEGKPYNQKSDI [C6A] | 2.81
VVGTPVYISPELCEGKPYNQKSDI [C6V] | 2.71
VVGTPRYISPELCEGKPYNQKSDI [C6R] | 3.88
